Measured values as given in patent US20090318342A1, “Compounds” (IMPERIAL INNOVATIONS LIMITED, priority 2005, published 2009).

T1: gelatinase A (MMP-2) (Homo sapiens, UniProt P08253)
T1 sequence (P08253 110-660): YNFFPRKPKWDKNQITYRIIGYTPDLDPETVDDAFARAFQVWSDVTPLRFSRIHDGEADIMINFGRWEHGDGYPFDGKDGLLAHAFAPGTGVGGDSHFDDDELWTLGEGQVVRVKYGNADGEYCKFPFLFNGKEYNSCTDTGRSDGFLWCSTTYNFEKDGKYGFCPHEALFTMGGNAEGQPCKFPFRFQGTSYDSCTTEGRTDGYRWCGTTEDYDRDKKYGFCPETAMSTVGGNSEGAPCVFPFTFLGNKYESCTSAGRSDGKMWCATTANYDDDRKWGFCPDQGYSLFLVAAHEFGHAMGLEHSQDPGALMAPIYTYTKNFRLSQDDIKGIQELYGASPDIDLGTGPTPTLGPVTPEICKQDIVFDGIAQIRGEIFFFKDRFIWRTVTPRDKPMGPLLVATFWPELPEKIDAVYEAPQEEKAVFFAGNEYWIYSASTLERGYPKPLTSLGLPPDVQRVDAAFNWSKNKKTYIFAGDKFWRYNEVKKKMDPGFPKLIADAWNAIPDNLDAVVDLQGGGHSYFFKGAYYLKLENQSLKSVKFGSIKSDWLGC

B1: -1A: N-TIMP-3 mutant with the addition of an N-terminal alanine extension (-1A) (protein)
chain: ACTCSPSHPQDAFCNSDIVIRAKVVGKKLVKEGPFGTLVYTIKQMKMYRGFTKMPHVQYIHTEASESLCGLKLEVNKYQYLLTGRVYDGKMYTGLCNFVERWDQLTLSQRKGLNYRYHLGCN
B2: N-TIMP-3: N-terminal inhibitory domain of TIMP-3 (residues 1 to 121), C-terminally His-tagged, wild-type (protein)
chain: CTCSPSHPQDAFCNSDIVIRAKVVGKKLVKEGPFGTLVYTIKQMKMYRGFTKMPHVQYIHTEASESLCGLKLEVNKYQYLLTGRVYDGKMYTGLCNFVERWDQLTLSQRKGLNYRYHLGCN

Tests used:
[1] = target: catalytic domain of membrane-type 1 MMP (MMP-14(CD)); experiment: Enzyme inhibition kinetic study, MMP-14; assay type: biochemical; settings: Table I; enzyme 5 nM; pH 7.5; read-out: Ki(app) MMP-14(CD)
Description: FIG. 2. Inhibition of MMP and TACE by N-TIMP-3 and its mutants. A. Inhibition of MMP-14(CD) by wild-type and mutated N-TIMP-3. Open circles, wild-type N-TIMP-3; closed circles, T2G; and open squares, -1A. B. Comparison of the inhibition of TACE by wild-type N-TIMP-3, N-TIMP-1 and TAPI-2. The inhibitors were incubated with 0.5 nM TACE for 3 hr at room temperature, and the residual enzyme activity was measured with 10 μM Substrate III (R&D Systems). The assays were performed at pH 9.0 at a final NaCl concentration of 1 mM. Open circles, N-TIMP-3; closed circles, TAPI-2; and open squares, N-TIMP-1. C. Inhibition of TACE (0.5 nM) by wild-type and mutated N-TIMP-3. Open circles, wild-type inhibitor; closed circles, T2G; and open squares, -1A.
Enzyme inhibition kinetic studies—Inhibition kinetic studies for MMPs and TACE were carried out as described previously (19, 27) with modifications. Purified N-TIMP-3 and mutants were dialyzed against 20 mM Tris-HCl (pH 7.0), 50 mM NaCl containing 20% glycerol, centrifuged at 14,000 rpm for 10 min to remove any precipitate, and protein concentration was re-measured before conducting inhibition assays. […]
where v is the experimentally determined reaction velocity, v0 is the uninhibited activity, E is enzyme concentration, I is inhibitor concentration, K is the apparent inhibition constant (Ki^(app)) and h is the Hill coefficient. […]

[2] = tested on: bovine nasal cartilage explants; experiment: IL-1α-stimulated bovine nasal cartilage explants, GAG release; assay type: cell-based; settings: 3 days
Description: (§1) GAG released into the conditioned media is measured in duplicate using a modification of the dimethylmethylene blue (DMMB) assay as described in Farndale et al.. Shark chondroitin sulfate (0-2.62 μg) is used as standard. The % of total GAG released into the medium is calculated as follows: % of total GAG released=(total GAG in the medium)/(total GAG in the medium+total GAG remaining in the cartilage).
Bovine nasal cartilage explants were stimulated with IL-1α in the presence or absence of N-TIMP-1, TIMP-2, or N-TIMP-3 for 3 days.

[3] = target: T2, catalytic domain of stromelysin 1 (MMP-3(ΔC)) (Homo sapiens, UniProt P08254); settings: Table I; data taken from ref. 8; read-out: Ki(app) MMP-3(ΔC); cited from earlier work
T2 construct: the catalytic domains of stromelysin 1 (MMP-3(ΔC)) and membrane-type 1 MMP (MMP-14)

[4] = tested on: porcine articular cartilage; experiment: Retinoic acid-stimulated porcine articular cartilage, GAG release; assay type: cell-based
Description: Porcine articular cartilage from the metacarpophalangeal joints of 3-9 month old pigs is dissected into small shavings approximately 3 mm long and 2-3 mm wide. After dissection, the cartilage is allowed to rest for 24 h at 37° C. under 5% CO2 in DMEM containing penicillin-streptomycin, amphotericin B, and 5% fetal calf serum. The medium is then replaced with fresh media and the cartilage is rested for a further 24-48 h. Each cartilage piece is then placed in one well of a round bottom 96-well plate with 200 μl of serum-free DMEM with or without 10-100 ng/ml IL-1α or 1 μM retinoic acid and various concentrations of each TIMP-3 mutant. After 3 days, all of the conditioned media are harvested and stored at −20° C. until use.
as §1

[5] = target: T1, gelatinase A (MMP-2); settings: Table I; data taken from ref. 8; read-out: Ki(app) MMP-2; cited from earlier work
[6] = tested on: porcine articular cartilage; experiment: IL-1α-stimulated porcine articular cartilage degradation, GAG release (DMMB); assay type: cell-based; settings: IL-1α 10 ng/ml, 3 days
Description: FIG. 7. Inhibition of IL-1a stimulated porcine articular cartilage degradation by N-terminal mutants of N-TIMP-3. Porcine articular cartilage pieces were cultured for three days. Cartilage was stimulated with IL-1α (10 ng/ml) with TIMPs at the concentrations indicated. Glycosaminoglycan (GAG) release in the media was measured by dimethyl methylene blue (DMMB).
Porcine articular cartilage from the metacarpophalangeal joints of 3-9 month old pigs is dissected into small shavings approximately 3 mm long and 2-3 mm wide. After dissection, the cartilage is allowed to rest for 24 h at 37° C. under 5% CO2 in DMEM containing penicillin-streptomycin, amphotericin B, and 5% fetal calf serum. The medium is then replaced with fresh media and the cartilage is rested for a further 24-48 h. […]
as §1, with “Shark chondroitin sulfate (0-2.62 μg) is used as standard.” left out
Porcine articular cartilage pieces were cultured for 3 days. […] Glycosaminoglycan (GAG) release in the media was measured by dimethyl methylene blue (DMMB).

T2 sequence (P08254 100-272 limits assumed, stated change not applied): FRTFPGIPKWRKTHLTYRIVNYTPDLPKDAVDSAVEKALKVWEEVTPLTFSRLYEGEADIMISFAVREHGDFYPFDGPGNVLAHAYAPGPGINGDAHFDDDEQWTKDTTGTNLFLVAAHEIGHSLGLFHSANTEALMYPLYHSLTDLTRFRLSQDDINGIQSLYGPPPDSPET

| Ki [1] [nM] | Molecule | Inhibition of IL-1α-stimulated GAG release [2] | Ki [3] [nM] | Inhibition of retinoic acid-stimulated GAG release [4] | Ki [5] [nM] | Inhibition of IL-1α stimulated cartilage degradation (GAG release) [6] |
| --- | --- | --- | --- | --- | --- | --- |
| 941 ± 206 | B1 | – | – | – | – | – |
| – | B2 | significantly inhibited | 67 ± 2.8 | inhibited by N-TIMP-3, but to a lesser extent compared with the IL-1α-stimulated cartilage | 4.3 ± 0.5 | dose dependently inhibited degradation |
